B1: HDV Ribozyme (parent)
chain: GGCCGGCAUGGUCCCAGCCUCCUCGCUGGCGCCGGCUGGGCAACAUUCCGAGGGGACCGUCCCCUCGGUAAUGGCGAAUGGGACCCA

Variants of: B1
Assay: self-cleavage, relative activity (ratio to wild type); higher = more cleavage; co-transcriptional

Variant | self-cleavage
GGCCGGCAUGGUCCCAGCCUCCUCGCUUGCGCCGGCUGGGCAACAUUCCGAGGGGACCGUCCCCUCGGUAAUGGCGAAUGGGACCAA [G28U C86A] | 0
GGCUGGCAUGGUCCCAGCCUCCUCGCUGGCGCCGGCUGGGCAACAUUCCGAGGGGACCUUCCCCUCGGUAAUGGCGAAUGGGACCCA [C4U G59U] | 0.973
GGCCGGCAUGGUCCCAGCCUCCUCGCUGGCGCCGGCUGGGCAACAUUCCGAGGGGACCGUCGCCUCGGUAAUGGCGAACGGGACCCA [C62G U79C] | 0.529
GGCCGGCAUGGUCCCAGCCUCCUCGCUGGCGCCGGCUGUGCAACAUUCCGAGGGGACCGUCCCCUCGGUAAUGGCGAAUCGGACCCA [G39U G80C] | 0.181
GGCCGGCAUGGUCCCAGCCUCCUCGCUGGCGCCGGGUGGGCAACCUUCCGAGGGGACCGUCCCCUCGGUAAUGGCGAAUGGGACCCA [C36G A45C] | 0.0504
GGCCGGCAUGGUCCCAGCCUCCUCGCUGGCGCCGGCCGGGCAACAUUCCGAGGGGACCGUCCCCUUGGUAAUGGCGAAUGGGACCCA [U37C C66U] | 1.01
GGCCGGCAUGGUCCCAGCCUCCUCGCUGGCGCCGGCUGGGCAACAUUCCGAGGGGACCGUUCCCUCGGUUAUGGCGAAUGGGACCCA [C61U A70U] | 1.02
GGCCGGCAUGGUCCCAGCCUCGUCGCUGGCGCGGGCUGGGCAACAUUCCGAGGGGACCGUCCCCUCGGUAAUGGCGAAUGGGACCCA [C22G C33G] | 0
GGCCGGCAUGGUCCCAGCCUCCUCGCUGGCGCCGGCUGGGCAACAUUCCGAGGGGACCGUCCCCUCGAUAAUUGCGAAUGGGACCCA [G68A G73U] | 0.251
GGCCGGCAUGGUCCCAGCCUCCUCGAUGGCGCCGGCUGGGCAAGAUUCCGAGGGGACCGUCCCCUCGGUAAUGGCGAAUGGGACCCA [C26A C44G] | 0.712
AGACGGCAUGGUCCCAGCCUCCUCGCUGGCGCCGGCUGGGCAACAUUCCGAGGGGACCGUCCCCUCGGUAAUGGCGAAUGGGACCCA [G1A C3A] | 0.0627
GGCCGGCAUGGUCCCAGCCUCCUCGCUGGCGCCGGCUAGGCAACAUUCCGAGGGGACCGUCCCCUCGAUAAUGGCGAAUGGGACCCA [G38A G68A] | 0.21
GGCCGGCAUGGUCCCAGCCUCCUGGCUGGCGCCGGCUGGGCAACAUUCCGAGGGGACCGUCCCCUCGGUGAUGGCGAAUGGGACCCA [C24G A70G] | 0.0594
GGCGGGCAUGGUCCCAGACUCCUCGCUGGCGCCGGCUGGGCAACAUUCCGAGGGGACCGUCCCCUCGGUAAUGGCGAAUGGGACCCA [C4G C18A] | 0.0287
GGCCGGCAUGGUCCCUGCCUCCUCGCUGGCGCCUGCUGGGCAACAUUCCGAGGGGACCGUCCCCUCGGUAAUGGCGAAUGGGACCCA [A16U G34U] | 0.128
GGCCGGCAUGGUCCCAGCCUCCUCGCUGGCGCCGGCUGGGCAACAUUCCGAGGGGACCGUCCCCUCGGUAAUGGCGAAUGGACCCCA [G82A A83C] | 0.451
GGCCGGCAUGGUACCAGCCUCCUCGCUGGCGCCGGCUGGGCAACAUUCCGACGGGACCGUCCCCUCGGUAAUGGCGAAUGGGACCCA [C13A G52C] | 0.383
GGCCAGCAUGGUCCCAACCUCCUCGCUGGCGCCGGCUGGGCAACAUUCCGAGGGGACCGUCCCCUCGGUAAUGGCGAAUGGGACCCA [G5A G17A] | 0.172
GGCCGGCAUGGUCCCAGUCUCCUCGCUGGCGCCGGCUGGGCAACAUUCCGAGGGGACCGUCCCCUGGGUAAUGGCGAAUGGGACCCA [C18U C66G] | 0.813
GGCCGGCAUAGUUCCAGCCUCCUCGCUGGCGCCGGCUGGGCAACAUUCCGAGGGGACCGUCCCCUCGGUAAUGGCGAAUGGGACCCA [G10A C13U] | 0.179
GGCCGGCAUGGUCCCAGCCUCCUCGCUGGCGCCGGCUGUGCAAGAUUCCGAGGGGACCGUCCCCUCGGUAAUGGCGAAUGGGACCCA [G39U C44G] | 0.113
GGCCGGCAUGGUCCCAGCCUCCACGCUGGCGCCGGCUGGGCAACAUUCCGAGGGGACCAUCCCCUCGGUAAUGGCGAAUGGGACCCA [U23A G59A] | 1.12

Variant | self-cleavage
GGCCGGCAUGGUCCCAGCCUCCUCGCUGGCGCCGGCUGGGAAACAUUCCGAGGGGACCGUCCCCUCGGUAAUGGCGAAUGGGACCUA [C41A C86U] | 0.904
GGCCGGCAUGGUCCCAGCCUCCUCGCUGGCGCCGGCUGGGCAACAUUCCGAGGGGACCGUCCCCGCGGUAAGGGCGAAUGGGACCCA [U65G U72G] | 0.748
GGCCGGCAUGGUCCCAGCCUCCUCGCCGGCGCCGGCUGGGCAACAUUCCGAGGGGACCGUCCCCUCGGUAAUGACGAAUGGGACCCA [U27C G74A] | 0.193
GGCCGGCAUGGUCCCAGCCUCCUCGCUGUCGCCGGCUGGGGAACAUUCCGAGGGGACCGUCCCCUCGGUAAUGGCGAAUGGGACCCA [G29U C41G] | 0.0302
GGCCGGCAUGGUCCCAGCCUCCUCGCUGGCGCCGGCUGGGCAGCAUUCCGACGGGACCGUCCCCUCGGUAAUGGCGAAUGGGACCCA [A43G G52C] | 0.796
GGCCGGCGUGGUCCCAGCCUCCUCUCUGGCGCCGGCUGGGCAACAUUCCGAGGGGACCGUCCCCUCGGUAAUGGCGAAUGGGACCCA [A8G G25U] | 0.35
GUCCGGCAUGGUCCCAGUCUCCUCGCUGGCGCCGGCUGGGCAACAUUCCGAGGGGACCGUCCCCUCGGUAAUGGCGAAUGGGACCCA [G2U C18U] | 0.0755
GGCCGGCAUGGUCCCAGCCUCCUCGCUGGCGCCGGCUGGGCAACAUUCCGAGGGGACCGUCCCCUCGGUAAGGGCGAAUGGGACCCG [U72G A87G] | 0.546
GGCAGGCAUGGUCCCAGCCUCCUCGCUCGCGCCGGCUGGGCAACAUUCCGAGGGGACCGUCCCCUCGGUAAUGGCGAAUGGGACCCA [C4A G28C] | 0.0396
GGCCGGCAUGGUCCCAGCCUCCUCGCUGGCGCCGGCUCGGCAACAUUCCGAGGGGACCGUCCCCUAGGUAAUGGCGAAUGGGACCCA [G38C C66A] | 0.189
GGCCGGCAUGUUCCCAGCCUCCUCGCUGGCGCCGGCUGGGCAACAUUCCGAGGGGACUGUCCCCUCGGUAAUGGCGAAUGGGACCCA [G11U C58U] | 0.447
GGCCGGCAUGGUCCCAGCCUCCUCGCUGGCGCCGGCUGGGCAACAUUCACAGGGGACCGUCCCCUCGGUAAUGGCGAAUGGGACCCA [C49A G50C] | 1.15
GGCCGGCAUGGUCCCAGCCUCCUCGCUGGCGCCGGCUGGGCAACAUUCAGAGUGGACCGUCCCCUCGGUAAUGGCGAAUGGGACCCA [C49A G53U] | 0.608
GGCCGGCAUGGCACCAGCCUCCUCGCUGGCGCCGGCUGGGCAACAUUCCGAGGGGACCGUCCCCUCGGUAAUGGCGAAUGGGACCCA [U12C C13A] | 0.0665
GGCCGGCAUGCUCCCAGCCUCCUCGCUGGCGCCGGCUGGGCAACAUUCCGAGGGGACCGUCCCCUCGGUAAUGGCGAAUGCGACCCA [G11C G81C] | 0.0519
GGCCGGCAUGGUCCCAGCCUCCUCGCGGGCGCCGGCUGGGCAACAUUCCUAGGGGACCGUCCCCUCGGUAAUGGCGAAUGGGACCCA [U27G G50U] | 0.88
GGCCGGCAUGGUCCCAGCCUCCUCGCUGGCGCCGGCUGGGCAACAUUCCGAGGGGACCGUCCCCUCGGUAAUGGCGAAUGGGACGGA [C85G C86G] | 0.905
GGCCGGCAUGGUCCCAGCCUCCUCGCCGGCGCCGGCUGGGCAACAUUCUGAGGGGACCGUCCCCUCGGUAAUGGCGAAUGGGACCCA [U27C C49U] | 0.617
GGCCGGCAUGGUCCCAGCCUCCUCGCUGUCGCCGGCUGGGCAACAUUCCGAGGGGACCGUCCCCUCGGUAAUGGCGAAUGGGAACCA [G29U C84A] | 0.117
GGCCGGCAUGGUCCCAGCCUCCCCGCUGGCGACGGCUGGGCAACAUUCCGAGGGGACCGUCCCCUCGGUAAUGGCGAAUGGGACCCA [U23C C32A] | 0.125
GGCCGGCAUGGUCCCAGCCUCCUCGCUGGCGCCGGCUGGGCAACAUUCCGAGGGGACCGUCCCCUAGGUAAUGGCAAAUGGGACCCA [C66A G76A] | 1.13
GGCCGGCAUGGUCCCAGCCUCCUCGCGGGCGCCGGCUGGGCAACAUUCCGAGGGGACCGUCCCCUGGGUAAUGGCGAAUGGGACCCA [U27G C66G] | 0.629

Variant | self-cleavage
GGCCGGCAUGGUCCUAGCCUCCUCGCUGGCGCCGGCUGGGCAACAUUCCGAGGGGACCGUCCCCUCUGUAAUGGCGAAUGGGACCCA [C15U G67U] | 0.972
GGCCGGCAUGGUCCCAGCCUCCUCGCUGGCGCCGGCUGGGCAACAUGCCGAGGGGACCGUCCCCUCGGAAAUGGCGAAUGGGACCCA [U47G U69A] | 1.27
GGCCGGCAUGGUCCCAGCCUCCUCGCUGGCGCCGGCUGGGCGACAUUCCGAGGGGACCGUUCCCUCGGUAAUGGCGAAUGGGACCCA [A42G C61U] | 0.656
GGCCGGCAUGGUCCCAGCCUCCUCGCUGGCGCCGGAUGGGCAAAAUUCCGAGGGGACCGUCCCCUCGGUAAUGGCGAAUGGGACCCA [C36A C44A] | 0.19
UGCCGGCAUGGUCCCAGCCUCCUCGCUGGCGCCGGCUGGGCAACAUUCCGAGGGGACCGUCCCCUCGGUAUUGGCGAAUGGGACCCA [G1U A71U] | 0.424
GGCUGGCAUGGUCCCAGCCUCCUCGCUCGCGCCGGCUGGGCAACAUUCCGAGGGGACCGUCCCCUCGGUAAUGGCGAAUGGGACCCA [C4U G28C] | 0
GGCCGGCAUGGUCCCAGCCUCCUCGCUGGCGCCGGCUGGGCCACAUUCCGAGGGGACCGUCCCGUCGGUAAUGGCGAAUGGGACCCA [A42C C64G] | 0.277
GGCCGGCAUGGUCCCAGCCUCUUCGCUGGCGCCGGCUGGGCAACAUUCCGAGAGGACCGUCCCCUCGGUAAUGGCGAAUGGGACCCA [C22U G53A] | 0.821
GGCAGGCAUGGUCCCAGCCUCCGCGCUGGCGCCGGCUGGGCAACAUUCCGAGGGGACCGUCCCCUCGGUAAUGGCGAAUGGGACCCA [C4A U23G] | 0.0449
GGCAGGCAUGGUCUCAGCCUCCUCGCUGGCGCCGGCUGGGCAACAUUCCGAGGGGACCGUCCCCUCGGUAAUGGCGAAUGGGACCCA [C4A C14U] | 0.554
GGCCGGCAUGGUCCCAGCCUCCUCGCUGGCGCCGACUGGGCAACAUUCCGAGGGGACCGUCCCCUCGGUAAUGGUGAAUGGGACCCA [G35A C75U] | 0.133
GGGCGGCAUGGUCCCAGCCUCCUCGCUGGCGCCGGCUGGGCAACAUUCCGAGCGGACCGUCCCCUCGGUAAUGGCGAAUGGGACCCA [C3G G53C] | 0.609
GGCCGGCAUGGUCCCAGGCUCCUCGCUGGCGCCGGCUGGGCAACAUUCCGAGGGGACCGUCCCCUCGGUAAUGGCGAAUGGGACACA [C18G C85A] | 0.0554
AGCCGGCAUGGUCCCAGCCUCCUCGCUGGCGCCGGCUGGGCAACAUUCCGACGGGACCGUCCCCUCGGUAAUGGCGAAUGGGACCCA [G1A G52C] | 0.237
GGCCGGCAUGGUCCCAGCCUCCUCGCGGGCGCCGGCUGGGCAUCAUUCCGAGGGGACCGUCCCCUCGGUAAUGGCGAAUGGGACCCA [U27G A43U] | 0.415
GGCCGGCAUGGUCCCAGGCUCCUCGCUGGCGCCGGCUGGGUAACAUUCCGAGGGGACCGUCCCCUCGGUAAUGGCGAAUGGGACCCA [C18G C41U] | 0.161
GGCCGGCAUGGUCCCAGCCUCCUCGCUGGCGCGGGCUGGGCAACAUUCCGAGGGGACCGUCCCCUCGGUAAUGGCGAACGGGACCCA [C33G U79C] | 0.0875
GGCCGGCAUGGUCACAGCCUCCUCGCUGGCGCCGGCUGGGCAACAUUCCGAGCGGACCGUCCCCUCGGUAAUGGCGAAUGGGACCCA [C14A G53C] | 0.665
CGCCGGCAUGGUCCCAGCCUCCUCGCUGGCGCCGGCUGGGCAACAUUCCGAGGGGACCGUCCCCUCGCUAAUGGCGAAUGGGACCCA [G1C G68C] | 0.0978
GACCGGCAUGGUCCCAGCCUCGUCGCUGGCGCCGGCUGGGCAACAUUCCGAGGGGACCGUCCCCUCGGUAAUGGCGAAUGGGACCCA [G2A C22G] | 0.0191

From the RNAGym collection of RNA variant scans (doi:10.7554/elife.80360)
